Laboratory results from the supplement of paper PMC9170038.

System: MS2 coat protein
Experiment: apparent KD of MS2 coat protein; designed switch direction (-1 OFF switch, 1 ON switch): -1; higher = weaker reporter binding
Outline: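 Three titration conditions were used: no input, 200 uM small-molecule ligand, and an oligonucleotide input. In each, SNAP-549-labelled MS2 coat protein was raised from 0.7 or 1.5 nM, doubling, to 3 µM over designed RNA switches transcribed on Illumina chips by stalled E. coli RNA polymerase. Curve fits of normalised cluster fluorescence gave values whose per-design median over clusters is the apparent KD.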

[1] = Eterna round: R95, input ligand: FMN 200 uM
[2] = Eterna round: R95, input ligand: microRNA oligo, concentration not stated
[3] = Eterna round: R95, input ligand: none
[4] = input ligand: microRNA oligo, concentration not stated

Sequence | apparent KD of MS2 coat protein [1] | apparent KD of MS2 coat protein [2] | apparent KD of MS2 coat protein [3] | apparent KD of MS2 coat protein (input ligand: FMN 200 uM) | apparent KD of MS2 coat protein [4] | apparent KD of MS2 coat protein (input ligand: none)
AGUACUAACACGAAAGUGUUAGUACAAUAAGCUAGUGGAACAUGAGGAUCACCCAUGUCCUCAUUAGCUCGUCUUGU [Mat - Sensor v3 - Turn-off var 2 - D39] (puzzle: Sensor v3, turn-off variant 2) | 16.2 nM | 34.8 nM | 12.5 nM |  |  | 
AUCAGCUCGUGAGGAUAUACAUGAGGAUCACCCAUGUGAUCAAUAGCAGCUUCGGCUGCAUACAUGUAGAAGGCACGAGCUGAU [ENG2/6-A3] (Eterna round: R96, puzzle: Exclusion NG 2) |  |  |  | 95.6 nM | 19.9 nM | 135 nM
GAGAAUUUAUAGGAUAUCGUAUGGAUAAUUUAACGAGAAGGAUGAACAUGAGGAUCACCCAUGUGGUAUCAUGG [JL-ex6-3.14] (puzzle: Exclusion 6) | 270 nM | 280 nM | 247 nM |  |  | 
GAGAAGGUAGGAUAUACGAAUAAAUAGGGUAGGAAGAAGACACAUGAGGAUCACCCAUGUAGAAGGACCAAGAG [Mat - Exclusion 2 - Mod of my Tesla design - D36] (puzzle: Exclusion 2) | 29.3 nM | 14.6 nM | 17.8 nM |  |  | 
AAUCCACAUGAGGAUCACCCAUGUCAGGAUAUCGCGCGCGCGGUUUCGGUCGCGCGCGCGAGAAGGGACGGCUG (puzzle: Exclusion 1) |  | 22.1 nM |  |  |  | 
CUGACGGCAGGAUAUACAUGAGGAUCACCCAUGUAAAUUUUUCGUUUAACUUGAAUGUGUAGAAGGGCCCAACC [Ex3 #79] (Eterna round: R97, puzzle: Exclusion 3) |  |  |  | 19.6 nM |  | 21.5 nM
GUUAAGGUAGGAUAUACGAUAAUAUAGGGUAGAGAUAUAACACAUGAGGAUCACCCAUGUAGAAGGACCAAUUG [Mat - Exclusion 2 - Mod of my Tesla design - D55] (puzzle: Exclusion 2) |  | 26.2 nM |  |  |  | 
AUAAGGCUAGGAUAUGCAUGUGGCACAGCUCAGAAAAUAAGACAUGAGGAUCACCCAUGUAGAAGGAGCAUGCC [EX2 A.30] (Eterna round: R97, puzzle: Exclusion 2) |  |  |  | 19.4 nM |  | 16.2 nM
CUCCUCAUGGCGCCUAAACACAUGAGGAUCACCCAUGUACAGGCCUUUUGCCGUCUUAUAAUAAAACCGAGGAUGCG [Lainxezabe] (puzzle: Sensor v3, turn-off variant 1) | 29.6 nM | 223 nM | 26.8 nM |  |  | 
GGUUGACAUGAGGAUCACCCAUGUGAGGAUAUGCGAGAGAAAAAAGUGAGGAAGAAACGCAGAAGGCGCUGUCG [salish99-ex1_r3_010] (puzzle: Exclusion 1) | 59.3 nM | 163 nM | 133 nM |  |  | 
AGUGUGUGGCAGGAUAUUCUAAUCGUGAGUCGGGAAGAAGGGUCUACAUGAGGAUCACCCAUGUGAGCGGUUGA [Ex6 #45] (Eterna round: R97, puzzle: Exclusion 6) |  |  |  | 219 nM |  | 245 nM
GCUACCAGAGUGAGGAUAUCGGAUGCGCAAGCACACGAGAAGGCACAUGAGGAUCACCCAUGUAUGGUAGCCGU [eternacac ex4r4 #9] (Eterna round: R97, puzzle: Brourd's mod of Exclusion 4) |  |  |  | 13.2 nM |  | 39.1 nM
UUUUUAUAUGAAGGAUAUACUUAACAUGAGGAUCACCCAUGUGGUGUUGUGAGUGAGUGAGUUUAGUAGAAGGUCAAGUAUUCU [JMF's solution 40] (Eterna round: R96, puzzle: Exclusion NG 2) |  |  |  | 575 nM | 306 nM | 496 nM
GGAGCGAUUCUCUUAGCAGACAUGAGGAUCACCCAUGUAUGCAAGCUCUUAUUUUGCUCGUCUUACCGGGAGUUGCU [Ridizaer] (puzzle: Sensor v3, turn-off variant 1) | 13.6 nM | 20.7 nM | 13 nM |  |  | 
UCAUGUUUAGAGGAUAUGAUUACUCUAGAGUGAUCAGAAGGCUAGACAUGAGGAUCACCCAUGUCAGAACAUGU [Exclusion 6 - B - 17:a] (puzzle: Exclusion 6) |  | 24.5 nM |  |  |  | 
UCAAGACAUGAGGAUCACCCAUGUCAGGAUAUCUAGGUUCGCUAUUUCAUUGUUAACGAGAGAAGGGACAUGAU [EX1 C.13] (Eterna round: R97, puzzle: Exclusion 1) |  |  |  | 22.9 nM |  | 18 nM
GGUUGGCGAGGAUAUACAUGAGGAUCACCCAUGUGAGAGAAAAACGUGAGGAAGAAAAGUAGAAGGCGCUGACG [salish99_ex3_r3_025] (puzzle: Exclusion 3) | 36.4 nM | 81.6 nM | 65.6 nM |  |  | 

Sequence | apparent KD of MS2 coat protein [1] | apparent KD of MS2 coat protein [2] | apparent KD of MS2 coat protein [3] | apparent KD of MS2 coat protein (input ligand: FMN 200 uM) | apparent KD of MS2 coat protein [4] | apparent KD of MS2 coat protein (input ligand: none)
UGUAUACAUGAGGAUCACCCAUGUAAGGAUAUGCUUUAUUAUUAUUAUUAUUAUUGUUGCAGAAGGUACAUUAU [LRO-Excl01-07] (Eterna round: R97, puzzle: Exclusion 1) |  |  |  | 26.4 nM |  | 25.6 nM
UACAUGAGGAUCACCCAUGUUUUGUCGUGUAUGGUAUUUAUCUAGGAUAUCAAUUUGUUUAAUUAUGAGAAGGAGAAUAUUAAU [JMF's solution 70] (Eterna round: R96, puzzle: Exclusion NG 3) |  |  |  | 34.3 nM | 25.8 nM | 35.6 nM
AGCAUGUGAGGAUAUGCGAAGGGAAGGAGAGGGAAAGAGAAGCAGAAGGCACAUGAGGAUCACCCAUGUAAGGG [AK-MS2ROC-r4-exclusion4-8.1] (Eterna round: R97, puzzle: Exclusion 4) |  |  |  | 63.9 nM |  | 969 nM
CCGGAAUUGGAGGAUAUAGGAGUCGAUAGACACCUAGAAGGUCAGACAUGAGGAUCACCCAUGUGUCCUACCGG [Fiskers Ex 6 - 87] (puzzle: Exclusion 6) | 19.9 nM | 18.3 nM | 17.8 nM |  |  | 
UUGCCUAGUGUUAGGAUAUGCGACGGGUGACCGUUGCAGAAGGAACAUGAGGAUCACCCAUGUUUAAUAAAAUC [JL-BMX4-4.44 ViennaUCT mod] (Eterna round: R97, puzzle: Brourd's mod of Exclusion 4) |  |  |  | 35.9 nM |  | 13.2 nM
CUAAAUCAUGUAGGAUAUGCGUGGCAAAGCUAUGCAGAAGGACAUGAGGAUCACCCAUGUCAUUCCGUCUGCGAACAGACGGGA [Mat - Exclusion NG 1 - Mod of JL - D50] (Eterna round: R96, puzzle: Exclusion NG 1) |  |  |  | 161 nM | 15.4 nM | 20.3 nM
UUUAAUUUAAUUAAGAUCACAUGAGGAUCACCCAUGUAUAUAUAGGAUAUCAGCUCGAUUAGAGCUGAGAAGGAUAUAUACAUA [ExNG3/4-A1] (Eterna round: R96, puzzle: Exclusion NG 3) |  |  |  | 164 nM | 215 nM | 58.9 nM
UUUUUGUGAGGAUAUCAGUAGUAGAACAAUAGUACUACUACUGAGAAGGCACAUGAGGAUCACCCAUGUUCUUC [Fiskers Ex 4 Super stable 44 mod 11] (puzzle: Exclusion 4) |  | 27.1 nM |  |  |  | 
UACAUGAGGAUCACCCAUGUCUUUUCGUGUAUGGUACCCAUCUAGGAUAUCGUGUUAUUUAACCACGAGAAGGAGAGUAUCAAU [MOD5 Solution 21 by JMF] (Eterna round: R96, puzzle: Exclusion NG 3) |  |  |  | 65.6 nM | 55.9 nM | 66.5 nM
AGAGAAUACUCAGGAUAUCUGAAUAGAAAGAGAAGAGAAGGGAGACAUGAGGAUCACCCAUGUGAAGUCUUGAGGCUGCAUGGA [Prohibition 25 - Jieux - Exclusion NG 1] (Eterna round: R96, puzzle: Exclusion NG 1) |  |  |  | 83.5 nM | 145 nM | 106 nM
ACAUGAGGAUCACCCAUGUGAAAACAAUGGCUGACUUAGAGAUAGGAUAUAUGUGCAUAUCAAACAUAGAAGGGUCAUUACUGG [Deportation 89 - Jieux - Exclusion NG 3] (Eterna round: R96, puzzle: Exclusion NG 3) |  |  |  | 37.9 nM | 34.5 nM | 39.3 nM
UAAUAGGCAGGAUAUACAUGAGGAUCACCCAUGUAAAUUUUUCGUUUAACUUGAAUGUGUAGAAGGGCCAUAAA [Ex3 #53] (Eterna round: R97, puzzle: Exclusion 3) |  |  |  | 20.6 nM |  | 22.6 nM
CAACACUGAGGAUAUGCUCGGCCGGUUCUCCGUGCCCAAGUACUUGAGGAUCACCCAAGUAGAAGGCAGUAAAA [Diedar] (Eterna round: R97, puzzle: Exclusion 2) |  |  |  | 18.1 nM |  | 16 nM
UUGUUGUAUGUAGGAUAUGCAUAUUAUUGUUAUGCAGAAGGACAUGAGGAUCACCCAUGUAUAUUAUUAUUAUAUGUUAUAUAU [Title] (Eterna round: R96, puzzle: Exclusion NG 1) |  |  |  | 35.1 nM | 21 nM | 28 nM
CAUGCACAUGAGGAUCACCCAUGUGAGGAUAUUUAGCGUCAGUAAUCAAUAGACAGCAGAAGAAGGCACCUGGU [Eternabot (L2) Solution 73] (Eterna round: R97, puzzle: Exclusion 1) |  |  |  | 35 nM |  | 29.4 nM
UGUACGAUGCGUGCUGACAUGCGUCGUGCAGCAGGUGUUACAUGAGGAUCACCCAUGUCCUCAUUUGCUCGUCUUAU [SL-sv3-2.08 JL mod] (puzzle: Sensor v3, turn-off variant 2) | 250 nM | 250 nM | 337 nM |  |  | 
